Measurements: the nanobody polyreactivity screen of Harvey et al. (2022)

Assay: yeast display, Sf9 membrane polyspecificity reagent, FACS + sequencing; frameworks hold sequencing errors
Procedure, shortened: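 Using colony PCR, genes from sorted yeast display clones were amplified, then sequenced on MiSeq at 2 × 250 and filtered by CDR length. The clones had been stained with 10% biotinylated, detergent-solubilized Sf9 membrane reagent for 1 hour at 4 °C and sorted by FACS into low and high (top ~1%) gates on anti-HA and streptavidin fluorescence. Polyreactivity labels come from the gate of origin.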

Sequence	polyreactivity (PSR sort gate)
QVQLVESGGGLVQAGGSLRLSCAASGSIFQGYAMGWYRQAPGKERELVAVITSSGGSTYYADSVKGRFTISRDNAKNTVYLQMNSLKPEDTAVYYCAVGLLVYSRTYIGQAFFRYNYWGQGTQVTVSS	high polyreactivity
QVQLEESGGGLVQAGGSLRLSCAASGSTFDRYGMGWYRQAHWKERELVAAINSGDITNYADSVKGRFTISRDNAKNTVYLQMNSLKPEDTAVYYCAATQSRYYSDDPYYYWGQGTQVTVSS	low polyreactivity
QVQLVESGGGLVQAGGSLRLSCAASGSTFYDYAMGWYRQAPGKESELVAAITSSGASTYYADSVKGRFTISRDNAKNTVYLQMNSLKPEDTAVYYCAARKVWRSIRVALDYWGQGTQVTVSS	high polyreactivity
QVQLVESGGGLVQAGGSLRISCAASGYNSYSNAMGWYRQAPGKERELVASILSGGSTNYADSVKGRFTISRDNAKNTVYLQMNSLKPEDTAVSYCATRVRTRTGYQYYYWGQGTQVTVSS	high polyreactivity
QVQLVESGGGLVQAGGSLRLSCAASGSNFQNYAMGLYIQAPGKERELVAAISSSGTGTSYADSVKGRFTISRDNAKNTVYLQMNSLKPEDTAVYYCAADYLDYADSAYYYWGQCTQVTVSS	low polyreactivity
QVQLVESGGGLVQAGGSLRLSCAASGSILSAYSMGWYRQAPGKARELVAAISKSGSSTYYSDSVKGRFTISRDNAKNTVYLQMNSLKPEDTAVYYCAAESSSYYGYYIYYYWGQGTQVTVSS	high polyreactivity
QVQHVETGGGLVQAGGSLRLSCAASGFIFTRYVMGWSRQAPGKERELVAAISRIGASTYYADSVKGRFSISRDNAKNPVYLQMNSLKPEDTAVYYCNVVSGGYFEYEYCGQGTQVTVSS	high polyreactivity
QDQLVESAGGLVQAGGSLRLSCAATGLNLVPNTMGLYRQAPGKETQLVAAISYSGGGTYYADSVKGRFTISRDNAKNTVYLQMNSLKPEDTAVYYCAAYVKREYAPYGYWGQGTQVTVSS	low polyreactivity
QVQLVESGGGLVQAGGSLRLICAASGSTFWWYAMGWYRKAPGKEREFVAAIRWSSGSTYYADSVKGRFTISRDNAKNTVYLQMNSLKPEDTAVYYCATDDTSNVYVDLDYWGQGTQVTVSS	high polyreactivity
QVQLVESGGGLVQAGGSLRLSCAASGFTFSYYAKGWYRQAPGKERELVARISFSGTRTYYADSVKGRFTISRDNAKKTVYLQMKSLKPEDTAVSYWARRPGAWKYVYSGDYWGQGTQVTVSS	high polyreactivity
QVQLVESGGGLVQAGGSLRLSCAASGSTFPPNAMGWSRQAPGKERELVAAISERGGSTYYADSVKGRFTISRDNAKNTVYLQMNSLKPEDTAVYYCAVDYYYLMYWGQGTQVTVSS	low polyreactivity
QVQLVESGGGLGQAGGSLRLSCAASGRIFFGNARGWYRQAPGKEREFVAAISLTGVTTSYADSVKGRFTISRDNAKNTVYLQMNSLKPEDTAVYYCARDYSYYTHAYDYWGQGTQVTVSS	low polyreactivity
QVQLVESGGGLVQAGGSLRLSCAASGYIFKYYAMGWYIQAPGKERELVASITSGGRTNYADSVKGRFTISRDNAKNTVYLQMNSLKPEDTAVYYCAATSKYQQDPRRYDYWGHGTQVTVSS	high polyreactivity
QVQLVESGGGLVQAGGSLRLSCAASGNIFRSYMGWYRQAPGKERELVASISRRGGSTYYADSVKGRFTISRDNAKNTVYLQMNSLKPEDTAVYYCARRWSWVNGVFGYYWGQGTQVTVSS	high polyreactivity
QVQLVESGGGLVQAGGSLRLSCAASGRTFPAYAMGWYRQAPGKERELVAAISYSGGRTRYADSVKGRFTISRDNAKNTVYLQMNSLKPEDTAVYYCNRVIPTQSLRDYYWGQGTQVTVSS	high polyreactivity
QFQLVESGGGLVQAGGSLRLSCAASGSIFANALGWYRQAPRKERELVAAISFSGGRTFYADSVKGRFTISRDNAKNTVYLQMNSLKPDDTTVYYCNKDYWGYFSYWKSYLYDYWGQGTQVTVSS	high polyreactivity
QDQLVESGGGLVQAGGSHRLSCAASGFISDKNAMGWYRQAPRKERELVAAISQRGDRTYYADSVKGRFTISRDNAKNTVYLQMNSLKPEDTAVYYCGYLVRYHHLRYWGQGTQVTVSS	high polyreactivity
QVQLVESGGGLVQAGGSLRLSCAASGSTFTYNAMGWYRQAPGKERELVASISSGTTTYYADSVKGRFTISRDNAKNTVYLQMNSLKPEDTAVYYCAALVSPDRGYYSYWYIYDYWGQGTQVTVSS	low polyreactivity
QVQLVESGGGLVQAGGSLRLSCAASGNTFGKYGVGWYRQAPGKEREFVAAITSRGTSTYYADSVKGRFTISRDNEKNTVYLQMNSLKPEDTAVYYCNARPRYKYPRYDYWGQGTQVTVSS	high polyreactivity
EVQLVESGGGLVQPGGSLRLSCAASGYIYSRYRMGWYRQAPGKGREFVAAISGGSSTNYADSVKGRFTISRDNSKNTVYLQMNSLRAEDTAVYYCAAYKIDIDPRVYWGHGTQVTVSS	low polyreactivity
QVQLVESGGGLVQAGGSLRLSCAASGSIFYGYAMGWYRQAPGKERELVAAITDVGSTNYADSVKGRFTISRDNAKNTVYLQMNSLKPEDTAVYYCAADNYRRSSVDPFTDTMGYWGQGTQVTVSS	low polyreactivity
QVQLVESGRGLVQAGGRHRISCAASGSIIHDYAMGLYSQAPGKERELVAVISTSGGSTYYADSVKGRFTMSRDNAKNTVYLQMISLKPEETEVYYCNARTVGPYPSHAALEYDSWGPGTQVTVSS	low polyreactivity

Sequence	polyreactivity (PSR sort gate)
QVQLVESGGGLVQAGGSLRLSCAASGLTFRVYDMGWYRQAPGKERELVAAITGGGRTYYADSVKGRFTISRDNAKNTVYLQMNSLKPEDTAVYYCAARTRVTKREYDYWGQGTQVTVSS	high polyreactivity
QVQLVESGGGLVQAGGSLRLSCAASGSIFDSNAMGWYRQAPGKERELVATISSVGSTNYADSVKGRFTISRDNAKNTVYLQMNSLKPEDTAVYYCARVVDAQGYYSAASGGYYWGQGTQVTVSS	low polyreactivity
QVQLVESWGGLVQAGGSLRLSCDDSGFTIRVYAMGWYRQAPGKERELVAAISVRGDSTYYADSVKGRFTISRDNAKNTVYLQMNSLKPEDTAVYYCNAVIAPYRRYDYWGQGTQVTVSS	high polyreactivity
QVQLVESGGGLVQAGGSLRLSCAASGFIFWQYTMGWYRQAPGKERELVAAITWRGTRTYADSVKGRFTISRDNAKNTVYLQMNSLKPEDTAVYYCAAREYYHGPDGGYYGYDYWGQGTQVTVSS	high polyreactivity
QVQLVESGGGLVQAGGSLRLSCAASGSIFTGNAMGWYRQAPGKERELVASITTSTDSTYYADSVKGRFTISRDNAKNTVYLQMNSLNPEDTAVYYCAAEYAVAWKYGLYFYFHFDYWGQGTQVTVSS	low polyreactivity
QVQLVESGGVLVQAVGSLRLSCAASGSISSYYAMGWYIQAPGKERELVAAITSGGRTYYADSVKGRFTISRDNAKNTVYLQMNSLKPEATAVYYCAADPDTWSPHYESLGYYWGQGTQVTVSS	high polyreactivity
QVQLVESGGGLVQAGGSLRLSCAASGRIFARNAMGWYREAPGKERELVATIRVGGGSTYYADSVKGRFTISRHNAKNTVYLQMNSLKPEDTAVYYCAVRQLYSYPGDRRGYYWGQGTQVNVSS	low polyreactivity
QVQLVESGGGLVQAGGSLRLSCAASGRTFQSYAMGRYRQGPGKEREFVAVISRSGGDTYYADSVKGRFTISRDNAKNTVYLLMNSLKPEDTAVYYCARGYTWFYADCPEYDYWGQGTQVTVSS	high polyreactivity
QVHLVESGGGLDQAGGSLRLSCAASGSIFPHNAMVWYIQAPGKERELVASITSRCGITYYADSVKGRFTISRDNAKNTVYLQMNRLKPEDTAVYYCAARNNVEYLTIYKPYSFGSDSWGQGTQVTVSS	low polyreactivity
QVQLVESGRGLVQAGGILRLSCDASGRTIYFNRMGWYRHAPGKEREFVAAINRSGGSTYYADSVKGRFTISRDNAKNTVYLQMNSLKPEDTAVYYCAADGVIFEYDYWGQGTQVTVSS	low polyreactivity
QVQLVESGGGLVQAGGSLRLSCAASGFTIVYYAMGWYRQAPGKERELVAAITWSGGNTYYADSVKWRITISRDNAKNTVYLHMNSLKPEDNAVYYCAASPRGRRTTVGYPRRPFDYWGLGTQVTVSS	high polyreactivity
QVQLVESGGGLVQAGGSLRLSCAASGSTFRFNTMGWYRQAPGKERELVAAISYSGGSTYYADSVKGRFTISRDNAKNTVYLQMNSLKPEDTAVYYCAVQAWYLTYSYPYSKGYYWGQGTQVTVSS	high polyreactivity
QVQLVESGGGLVQAGGSLRLSCADSGLTFWVYAMGWYRQAPGKERELVAAISSGGSTNYADSVKGRFTISRDNAKNTVYVQMNSLKPEDTAVYYCAAEWVYWQDELWDSPGLVEFDYWGQGTQVTVSS	low polyreactivity
QVQLGESGGGLVQAGGSLSLSCAASGFSISWYVMGWYRLAPGKERELVAAISWSGDRTYYADSVKGRFTISRDNAKNTVYLQMNSLKPEDTAVFYCAARRWRKYFSGYNYWGQGTQVTVSS	high polyreactivity
QVQLVESGGFLVQAAGSLRLSCDASGFTFSSYSMGWYRQAPGKERELVAAISTRGGSTYYADSVKGRFTISLDNAMNSVYLLLNSLKPEDTADYYCATGGRGGRRYDYWGQGTQVTVSS	low polyreactivity
QVQLVESGGGLVQAGGSLRLSCAASGFTFDNYGMGWYRQAPGKERDLVAAISTSGGSTYYADSVKGRFTISRDNEKNTVYFQMNSLKPEDTADYYCNVDFYEYSSVSYDYWGQGTQVTVSS	high polyreactivity
QVQLVESGVGLVQAGGSLRLSCAASGSILSKNAMAWYREAPGNERELVAAITWSGGSTYYADSVKGRFTISRDNEKNTVYLQMNSLKPEDTAVSYCAADLDWSPHFGLPYDYWGQGTQVTVSS	low polyreactivity
QVQLVESGGGLVQAGGSLRLSCAASGSTFLVYAMGWYRQAPGKERELVAVIDNGGDTYYADSVKGRFTISRDNAKNTVYLQMNSLKPEDTEVYYCAADLSYLGYWEYDYWGQGTQVTVSS	low polyreactivity
QVQLVESGGGLVQAGGSLRLSCAASGRIFYPYAMGWYRQAPGKERELVAAINWSGDRTYYADSVKGRFTISRDNAKNTVYLQMNSLKPEDTAVYYCAAVYFTRSSGRRYDYWGQGTQVTVSS	high polyreactivity
QVQLVESGGGLVQAAGSLRLSCAASGSTFYRNAMGWYRQAPGKERELVASINNGGSTYYADSVKGRFTISRDNAKNTVYLQMNSLKPEDTAVYYCAATESWDYDYWGQGTQVTVSS	low polyreactivity
QVQLVESGGGLVQAGGSLRLSCAASGGNFTYNAMGWYRQAPGKERELVASISRGGGSTYYADSVKGRFTISRDNAKNTVYLQMNSLKPEDTAVYYCAASFIVGYYGYDYWGQGTQVTVSS	low polyreactivity
